Data set [1] is described as follows: FVIII antigen ELISA, 293T cell extracts. The following applies: control: WT full-length FVIII.
The nature of data set [2]: Coatest SP4 chromogenic assay, 293T media. The following applies: control: WT full-length FVIII.
The nature of data set [3]: FVIII antigen ELISA, 293T conditioned media. The following applies: control: WT full-length FVIII.
Data set [4] can be described thus: chromogenic activity / ELISA antigen ratio in media. The following applies: control: WT full-length FVIII.
Data set [5] can be described thus: anti-FLAG IP/blot of 293T conditioned media. The following applies: glycan lost.
Data set [6] in a line: anti-FLAG IP/blot of media, TM 2 μg/ml 12 h. The following applies: glycan lost; control: same construct, untreated.

Turning to Coagulation factor VIII (FVIII): D2131N, the “expression_or_secretion, percent_of_wt” value in data set [1] (glycan gained) and in data set [3] (glycan gained) was “no change” each time. Also, in data set [2] (glycan gained), the “other: cofactor (coagulant) activity in conditioned media, percent_of_wt” value (“other: cofactor … percent_of_wt” for short) is “decreases”. Further, in data set [4] (glycan gained), the “other: relative (specific) cofactor activity, percent_of_wt” value is recorded as “decreases”.

Turning to Coagulation factor VIII (FVIII): N2118Q, the “expression_or_secretion, percent_of_wt” value in data set [1] (glycan lost) and in data set [3] (glycan lost) was “no change” in each case. Further, in data set [2] (glycan lost), the “other: cofactor … percent_of_wt” value was “no change”. Further, the expression_or_secretion entry in data set [5] (control: WT C domain) is “decreases”. The “other: relative (specific) cofactor activity, percent_of_wt” value in data set [4] (glycan lost) was “no change”.

In the case of “Coagulation factor VIII (FVIII): N2118Q + D2131N”, in data set [5] (control: D2131N C domain), the expression_or_secretion result was “abolishes”.

As for “Coagulation factor VIII (FVIII): TM, A469S A2 domain”, the expression_or_secretion entry in data set [6] is on record as “increases”.

Consider “Coagulation factor VIII (FVIII): TM, A469T A2 domain”, for which the expression_or_secretion entry in data set [6] was “increases”.

“Coagulation factor VIII (FVIII): TM, G701S A2 domain”: the expression_or_secretion entry in data set [6] is “decreases”.

On to “Coagulation factor VIII (FVIII): TM, I566T A2 domain”, for which, in data set [6], the expression_or_secretion result is “decreases”.

With “Coagulation factor VIII (FVIII): TM, M614T A2 domain”, the expression_or_secretion result in data set [6] is “no change”.

On to “Coagulation factor VIII (FVIII): TM, WT C domain”, for which, in data set [6], the expression_or_secretion result is reported as “decreases”.

For Coagulation factor VIII (FVIII): W2062S, the “expression_or_secretion, percent_of_wt” value in data set [1] (glycan gained) and in data set [3] (glycan gained) was “no change” throughout. Also, the “other: cofactor … percent_of_wt” value in data set [2] (glycan gained) is listed as “decreases”. For the same substance, in data set [4] (glycan gained), the “other: relative (specific) cofactor activity, percent_of_wt” value is “decreases”.

These data come from PMC5957299.
